Key:
[1] = test system: immunopurified Drosha complex; assay: In vitro Drosha cleavage assay; format: biochemical
Description: We performed in vitro Drosha cleavage assays that mimic the first step in miRNA biogenesis to examine the relationship between bulge size and Drosha processing. RNAs with varying bulge sizes in the basal segments (FIG. 1B) were transcribed in vitro, incubated with immunopurified Drosha, and resolved by PAGE (FIG. 1C). […] Such abortive processing has been previously observed in vitro and attributed to DGCR8 recognition of the terminal loop instead of the miRNA basal segments (Han et al., 2006).
Internally radiolabeled RNAs were transcribed in vitro from an annealed template containing the T7 promoter (5′-[…]-3′, where G is the first transcribed nucleotide) using the Ampliscribe T7 transcription kit (Epicentre) according to the manufacturer's instructions with [α-32P]-GTP. Following transcription and DNase treatment, the transcription product was purified through a NucAway clean-up column (Ambion) according to the manufacturer's instructions and gel-purified by PAGE.
In vitro assays were conducted as described previously (Lee
and Kim, 2007). Briefly, the Drosha complex was immunopurified from 293T cells transiently transfected with pCK-Drosha-FLAG and pCK-DGCR8-FLAG (9:1 mass ratio). […]

[2] = test system: transcript encoding the green fluorescent protein (GFP) in HEK 293 cells stably expressing GFP; assay: Cell culture assay for miRNA activity (GFP silencing, transient transfection, flow cytometry); format: cell-based, human
Source text: To examine the relationship between bulge size in the basal segments and gene silencing, we developed a general cell culture assay for miRNA activity (FIG. 1D). miRNAs designed to target a transcript encoding the green fluorescent protein (GFP) were inserted into the 3′ untranslated region (UTR) of a constitutively-expressed transcript encoding the fluorescent protein DsRed-Express. Plasmid DNA encoding the DsRed-Express construct was transfected into HEK 293 cells stably expressing GFP. The level of miRNA-mediated gene silencing was determined by flow cytometry analysis, where DsRed-Express levels were used to distinguish between transfected and untransfected cells. Using the cell culture assay, miRNAs with the same bulges as in the in vitro experiments were tested for silencing efficiency. […] Therefore, proper Drosha processing and gene silencing correlate with the size of the bulge in the miRNA basal segments.
293 and Flp-In-293 cells were maintained in DMEM supplemented with 10% FBS at 37° C. in a 5% CO2—humidified incubator. Transient transfections were conducted with Fugene 6 (Roche) according to the manufacturer's instructions one day after seeding. Immediately prior to transfection, the media was supplemented with the appropriate ligand at the specified concentration. Ligand concentrations were selected to maximize the regulatory response without severely compromising cell viability over the course of the transient assays. The media was replaced two days post-transfection. Three days post-transfection, the cells were trypsinized and subjected to flow cytometry analysis on a Cell Lab Quanta SC MPL (Beckman Coulter) and the resulting data was analyzed using the Flowjo software (Tree Star). Cells were initially gated for viability by electronic volume and side scatter. GFP and DsRed fluorescence of viable cells were measured through a 525 nm and […] band pass filter, respectively, after excitation with a 488 nm laser. Moderate to high DsRed levels served as a transfection control to gate between transfected and untransfected cells. Transfected cells could be distinguished from untransfected cells with this method even when four miRNAs were present in the 3′ UTR of the DsRed-Express encoding transcript (data not shown). GFP levels were calculated as the median fluorescence of the transfected population divided by that of the untransfected population (Beisel et al., 2008). This normalization approach corrected for the bias from pleiotropic effects associated with each small molecule. All ratios were normalized such that the value for DsRed-Express lacking a miRNA under the same conditions was set to 100%.

targeted GFP transcript = assay: Self-targeting miRNA circuit, GFP levels in stable 293-Flp-In cells (flow cytometry, time course); format: cell-based, human; settings: 1.5 mM theophylline for over a week; compared to th1′
Source text: Ligand-responsive miRNAs can regulate genes in trans through RISC targeting and in cis through Drosha cleavage. A control system based on combining both modes of regulation into ‘self-targeting miRNAs’ may offer tighter regulation while still operating within the 3′ UTR of the transgene encoding transcript. We developed a dual-acting miRNA circuit based on the insertion of ligand-responsive miRNAs or miRNA clusters into the 3′ UTR of a targeted GFP transcript (FIG. 6A), where ligand control of Drosha cleavage is expected to impact direct destabilization of the cleaved transcript and subsequent RISC-mediated inactivation of other target transcripts. The resulting constructs were stably integrated into 293-Flp-In cells to ensure consistent expression for all constructs. […]
Stable transfection of 293-Flp-In cell lines was performed using the Flp-In recombinase system (Invitrogen) according to the manufacturer's instructions to generate isogenic stable cell lines. Integrants were selected using 200 μg/ml hygromycin B (Invitrogen), whereas stable cell lines were maintained in 50 μg/ml hygromycin B. The procedure described above for the fluorescence expression analysis of transiently transfected cell populations was used to analyze the stable cell lines with notable exceptions. […]

[3] = test system: transcript encoding DsRed-Express; assay: DsRed-Express levels, regulation in cis (transient transfection, flow cytometry); format: cell-based, human
Source text: To assess the capacity for ligand-responsive miRNAs to regulate gene expression in cis, we measured expression levels for the transcripts harboring the ligand-responsive miRNAs targeting GFP and La. DsRed-Express levels were quantified by flow cytometry under similar conditions as the trans-targeted gene silencing experiments. […] Transcript analysis confirmed that the predominant regulatory mechanism of ligand-responsive miRNAs in cis is mRNA destabilization (FIG. 10).
293 and Flp-In-293 cells were maintained in DMEM supplemented with 10% FBS at 37° C. in a 5% CO2—humidified incubator. Transient transfections were conducted with Fugene 6 (Roche) according to the manufacturer's instructions one day after seeding. Immediately prior to transfection, the media was supplemented with the appropriate ligand at the specified concentration. […] Three days post-transfection, the cells were trypsinized and subjected to flow cytometry analysis on a Cell Lab Quanta SC MPL (Beckman Coulter) and the resulting data was analyzed using the Flowjo software (Tree Star). […] GFP and DsRed fluorescence of viable cells were measured through a 525 nm and […] band pass filter, respectively, after excitation with a 488 nm laser. […] GFP levels were calculated as the median fluorescence of the transfected population divided by that of the untransfected population (Beisel et al., 2008). […]

B1: th1: SEQ ID NO. 23; GFP-targeting miRNA with a theophylline aptamer in the basal segments (nucleic acid)
chain: TCTAGAACGGGTCCTGATACCAGCGTGAGCGAGCACAAGCTGGAGTACAACTATAGTGAAGCCACAGATGTATAGTTGTACTCCAGCTTGTGCCCGCCTACGCCCTTGGCAGCAGGGCCC
modifications: expressed or natural sequence
notes: 23; GFP-targeting miRNA with a theophylline aptamer in the basal segments
- size of primary products of Drosha processing ([1]; in vitro transcribed miRNA, PAGE): ~61 nts
- effect of theophylline on Drosha processing ([1]; presence or absence of 5 mM theophylline): theophylline inhibited proper processing
- GFP silencing ([2]; single copy, absence of ligand): silence GFP with comparable strength
- response of GFP levels to theophylline ([2]; transient transfection with varying theophylline concentrations): theophylline dose-dependent increase in GFP expression levels
- GFP silencing and theophylline response of two miRNA copies, adjacent placement ([2]; two copies, shortest spacer (2 nt), 5 mM theophylline): compromised both silencing and the response to theophylline
- GFP silencing and theophylline response of two miRNA copies, increased spacer length ([2]; two copies, spacer up to 112 nt, 5 mM theophylline, versus single copy): restored and even exceeded the silencing activity and theophylline-dependence from a single copy
- GFP silencing versus miRNA copy number ([2]; up to four copies separated by 112 nt spacer): GFP silencing increased with each additional copy
- dynamic range (ratio of GFP levels in the presence or absence of theophylline) versus copy number ([2]; up to four copies, 112 nt spacer, 5 mM theophylline): increased silencing and the dynamic range
- GFP silencing and dynamic range of self-targeting versus non-targeting miRNAs (targeted GFP transcript): improved both GFP silencing and the dynamic range
- ligand regulation of DsRed-Express in cis ([3]; 5 mM theophylline): two copies were sufficient to introduce ligand regulation
- DsRed silencing in cis versus copy number ([3]; one to four copies, transient transfection): DsRed silencing increased with increasing copy number
